Results as given in US20180251535A1 (ARMAGEN, published 2018).
Each block holds one molecule with its values, some of them ahead of it.

Assays:
[1] = biological target: human insulin receptor extracellular domain (HIR ECD) (human) (UniProt P06213); experiment: ELISA, HIR ECD plated, detection with biotinylated goat anti-human IgG
[2] = biological target: human insulin receptor extracellular domain (HIR ECD) (human) (UniProt P06213); experiment: ELISA, HIR ECD plated
[3] = biological target: T1, human insulin receptor extracellular domain (HIR ECD) (human, UniProt P06213 28-956, limits assumed); experiment: ELISA, HIR ECD plated on Nunc-Maxisorb wells, detection with biotinylated goat anti-human IgG
T1 construct: extracellular domain; Purified on a wheat germ agglutinin column from serum free medium of CHO cells permanently transfected with the HIR ECD (Coloma et al. 2000)
Description: (§1) The affinity of the fusion protein for the HIR extracellular domain (ECD) was determined with an ELISA. CHO cells permanently transfected with the HIR ECD were grown in serum free media (SFM), and the HIR ECD was purified with a wheat germ agglutinin affinity column, as previously described in Coloma et al. (2000) Pharm Res, 17:266-274. The HIR ECD was plated on Nunc-Maxisorb 96 well dishes and the binding of the HIR Ab, or the HIR Ab-IDS fusion protein, to the HIR ECD was detected with a biotinylated goat anti-human IgG (H+L) secondary antibody, followed by avidin and biotinylated peroxidase (Vector Labs, Burlingame, CA). The concentration of either HIR Ab or HIR Ab-IDS fusion protein that gave 50% maximal binding was determined with a non-linear regression analysis.

[4] = biological target: T1, human insulin receptor extracellular …; experiment: ELISA, HIR ECD plated, same methods as for FIG. 11
Description: as §1

EC50 [1]: 4.8 nM
reduction in receptor binding affinity (against the HIR Ab) [2]: 95%
Molecule: GUSB-HIR Ab fusion protein (GUSB fused to the amino terminus of the HIR Ab heavy chain) (from UniProt P08236 23-633)

EC50 [3]: 0.32 nM
EC50 [4]: 0.41 nM
B1: chimeric HIRMAb (chimeric monoclonal antibody to the human insulin receptor) (antibody, human IgG1, kappa, V domains shown)
VH: QVQLQQSGPELVKPGALVKISCKASGYTFTNYDIHWVKQRPGQGLEWIGWIYPGDGSTKYNEKFKGKATLTADKSSSTAYMHLSSLTSEKSAVYFCAREWAYWGQGTLVTVSA
VL: DIQMTQSPSSLSASLGERVSLTCRASQDIGGNLYWLQQGPDGTIKRLIYATSSLDSGVPKRFSGSRSGSDYSLTISSLESEDFVDYYCLQYSSSPWTFGGGTKMEIKR
notes: Human IgG1 constant region, kappa light chain; also called HIR Ab; chimeric HIR Ab
